Results as given in patent publication US11447566B2, “Anti-tissue factor antibodies, antibody-drug conjugates, and related methods” (Iconic Therapeutics, Inc., priority 2018, dated 2022).

What was measured:
[1] = molecular target: T1, TF:FVIIa on MDA-MB-231 cells (Homo sapiens, UniProt P13726); test: FXa conversion assay; format: cell-based; details: concentrations of 25, 50, and 100 nM; FIG. 14A
T1 construct: MDA-MB-231 cells (ATCC, Manassas, Va., USA) were plated; host or cells: MDA-MB-231
Description: To evaluate the ability of TF:FVIIa to convert FX into FXa in the presence of human antibodies against TF, 5×10^4 MDA-MB-231 cells (ATCC, Manassas, Va., USA) were plated into tissue culture-treated black 96-well plates (Greiner Bio-One, Monroe, N.C., USA). […] Upon reconstitution of the binary TF:FVIIa complex with a final concentration of 20 nM of FVIIa, cells were incubated for 5 min at 37° C.
Briefly, 5×10^4 MDA-MB-231 cells (ATCC, Manassas, Va., USA) were plated into tissue culture-treated black 96-well plates (Greiner Bio-One, Monroe, N.C., USA) and cultured overnight. […] Upon reconstitution of the binary TF:FVIIa complex with a final concentration of 20 nM of FVIIa, cells were incubated for 5 min at 37° C.

[2] = molecular target: T2, human TF on MDA-MB-231 cells (FVII-Fc binding) (Homo sapiens, UniProt P13726); test: FVIIa competition assay; details: highest concentration of antibody; FIG. 14B
T2 construct: TF-positive MDA-MB-231 cells (ATCC, Manassas, Va., USA); host or cells: MDA-MB-231
Description: To evaluate competition between FVIIa and the human antibodies against TF, TF-positive MDA-MB-231 cells (ATCC, Manassas, Va., USA) were first incubated for 1 hr on ice with a titration of the human antibodies against TF. Subsequently, a final concentration of 20 nM of FVII-Fc conjugated to Alexa488 was added to the antibody cell mixture. After another 1 hr incubation on ice, cells were washed, stained with a viability dye, and analyzed by flow cytometry. The Alexa488 fluorescence data from viable cells was summarized using median fluorescence intensity.
Subsequently, FVII-Fc conjugated to Alexa488 was added to the antibody-cell mixture at a final concentration of 20 nM. After another 1 hr incubation on ice, cells were washed, stained with a viability dye, and analyzed by flow cytometry. The Alexa488 fluorescence data from viable cells was summarized using median fluorescence intensity (MFI).

[3] = molecular target: T3, human TF on MDA-MB-231 cells (25A3-Alexa488 binding) (Homo sapiens, UniProt P13726); test: Antibody competition assay with 25A3; details: pre-incubation with unlabeled competitor antibody
T3 construct: TF-positive MDA-MB-231 cells (ATCC, Manassas, Va., USA); host or cells: MDA-MB-231
Description: (§1) Alexa Fluor antibodies were generated using Alexa Fluor 488 5-sulfo-[…] esters (ThermoFisher Scientific) following manufacturer's protocol. Excess Alexa Fluor dye was removed from the antibody dye conjugate preparations by gel filtration (ThermoFisher Scientific).
(§2) After another 1 hr incubation on ice, cells were washed, stained with a viability dye, and analyzed by flow cytometry. The Alexa488 fluorescence data from viable cells was summarized using median fluorescence intensity.

[4] = molecular target: T4, human TF on MDA-MB-231 cells (39A-Alexa488 binding) (Homo sapiens, UniProt P13726); test: Antibody competition assay with 39A; details: pre-incubation with unlabeled competitor antibody
T4 construct: TF-positive MDA-MB-231 cells (ATCC, Manassas, Va., USA); host or cells: MDA-MB-231
Description: as §1, §2

[5] = molecular target: T5, human, rat and chimeric human-rat TF constructs expressed on HEK293 cells (Homo sapiens, UniProt P13726); test: Live cell staining assay on chimeric TF constructs (epitope binning); format: cell-based; details: construct hTF
T5 construct: expressed in transfected cells; host or cells: HEK293
Description: (§3) To establish binding of the anti-human TF antibodies to the various TF constructs, HEK293 cells were transfected with a DNA plasmid that co-expresses the TF construct and a green fluorescent protein marker. […] Two days after transfection, cells were collected from the tissue culture plate, stained with 15 μg/ml of the indicated anti-TF antibody, washed, stained with anti-human IgG-Fc Alexa Fluor 647 polyclonal antibody, washed, and stained with the viability dye 4′,6-Diamidino-2-Phenylindole, Dihydrochloride. Upon acquisition of 80,000 live events on a flow cytometer, live cells marked with the fluorescent marker were analyzed for the degree of staining by the anti-TF antibody. […] As used herein, the term “live cell staining assay” refers to the antibody binding assay used in this example.
(§4) When “Percentage antibody binding to TF construct relative to hTF” in Tables 51 and 52 was less than 50%, the antibody was considered a non-binder (0) in Tables 53 and 54.
(§5) Each antibody was assigned to an epitope bin in Table 55 based on the combination of unbound constructs from Table 53.

[6] = molecular target: T6, human, rat and chimeric human-rat TF constructs expressed on HEK293 cells (Homo sapiens, UniProt P13726, K197R/S192D/S195T); test: as above; format: cell-based; details: construct h159-166_r (3), human segment replaced by rat segment
T6 construct: expressed in transfected cells; host or cells: HEK293
Description: as §3, §4, §5

[7] = molecular target: T7, human, rat and chimeric human-rat TF constructs expressed on HEK293 cells (Homo sapiens, UniProt P13726, D177Q/N170G/R168K/S174T); test: as above; format: cell-based; details: construct h133-145_r (4), human segment replaced by rat segment
T7 construct: expressed in transfected cells; host or cells: HEK293
Description: as §3, §4, §5

[8] = molecular target: T8, human, rat and chimeric human-rat TF constructs expressed on HEK293 cells (Homo sapiens, UniProt P13726, K100N); test: as above; format: cell-based; details: construct hTF_K68N
T8 construct: expressed in transfected cells; host or cells: HEK293
Description: as §3, §4, §5

[9] = molecular target: T9, human, rat and chimeric human-rat TF constructs expressed on HEK293 cells (Homo sapiens, UniProt P13726, E127T/E131K/E137D/L136R/N139K/P130R/S129A/T133L/Y126F); test: as above; format: cell-based; details: construct h94-107_r (9), human segment replaced by rat segment
T9 construct: expressed in transfected cells; host or cells: HEK293
Description: as §3, §4, §5

[10] = molecular target: T10, human, rat and chimeric human-rat TF constructs expressed on HEK293 cells (Homo sapiens, UniProt P13726, S192D); test: as above; format: cell-based; details: construct h159-219_r (27), human segment replaced by rat segment
T10 construct: expressed in transfected cells; host or cells: HEK293
Description: as §3, §4, §5

[11] = molecular target: T11, human, rat and chimeric human-rat TF constructs expressed on HEK293 cells (Homo sapiens, UniProt P13726, D76N/F108L/F82T/G75R/K100N/K73R/L104E/Q101W/S79Y/T72D/Y83G); test: as above; format: cell-based; details: construct h39-77_r (11), human segment replaced by rat segment
T11 construct: expressed in transfected cells; host or cells: HEK293
Description: as §3, §4, §5

[12] = molecular target: T12, human, rat and chimeric human-rat TF constructs expressed on HEK293 cells (Homo sapiens, UniProt P13726, I184G/T186I/W190R/Y188T); test: as above; format: cell-based; details: construct h152-158_r (4), human segment replaced by rat segment
T12 construct: expressed in transfected cells; host or cells: HEK293
Description: as §3, §4, §5

[13] = molecular target: T13, human, rat and chimeric human-rat TF constructs expressed on HEK293 cells (Homo sapiens, UniProt P13726, N170G/R168K); test: as above; format: cell-based; details: construct h133-139_r (2), human segment replaced by rat segment
T13 construct: expressed in transfected cells; host or cells: HEK293
Description: as §3, §4, §5

[14] = molecular target: T14, human, rat and chimeric human-rat TF constructs expressed on HEK293 cells (Rattus norvegicus, UniProt P42533); test: as above; format: cell-based; details: construct rTF
T14 construct: expressed in transfected cells; host or cells: HEK293
T14 sequence (P42533 29-295, change not shown): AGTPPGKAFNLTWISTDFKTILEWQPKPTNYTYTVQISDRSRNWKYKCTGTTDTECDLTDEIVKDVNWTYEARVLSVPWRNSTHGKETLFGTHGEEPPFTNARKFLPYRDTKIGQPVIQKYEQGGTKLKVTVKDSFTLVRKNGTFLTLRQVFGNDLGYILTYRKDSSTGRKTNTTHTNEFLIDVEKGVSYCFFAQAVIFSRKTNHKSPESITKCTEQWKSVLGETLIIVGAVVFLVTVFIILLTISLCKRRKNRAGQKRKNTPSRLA
Description: as §3, §4, §5

[15] = system: human, rat and chimeric human-rat TF constructs expressed on HEK293 cells; test: as above; format: cell-based; details: for Antibody binding to TF construct: human segment replaced by rat segment
Description: as §3, §4, §5

[16] = molecular target: T15, human, rat and chimeric human-rat TF constructs expressed on HEK293 cells (Homo sapiens, UniProt P13726, K181N); test: as above; format: cell-based
T15 construct: expressed in transfected cells; host or cells: HEK293
Description: as §3, §4, §5

[17] = molecular target: T16, human, rat and chimeric human-rat TF constructs expressed on HEK293 cells (Homo sapiens, UniProt P13726, A200N/K201T/N203H); test: as above; format: cell-based; details: construct h167-174_r (3), human segment replaced by rat segment
T16 construct: expressed in transfected cells; host or cells: HEK293
Description: as §3, §4, §5

TF-011 [reference compound]
inhibition of FX conversion [1]: 57-59% | competition with FVII [2]: effectively competed | % 25A3 binding [3]: did not reduce | % 39A binding [4]: reduced | Antibody binding to TF construct ([5]; Table 54): 1 (between 50% and 150%, the antibody was considered a binder (1)) | Antibody binding to TF construct [5]: 1 (between 50% and 150%, the antibody was considered a binder (1)) | Antibody binding to TF construct [6]: 1 (between 50% and 150%, the antibody was considered a binder (1)) | Antibody binding to TF construct [7]: 1 (between 50% and 150%, the antibody was considered a binder (1)) | Antibody binding to TF construct [8]: 1 (between 50% and 150%, the antibody was considered a binder (1)) | Antibody binding to TF construct [9]: 0 (less than 50%, the antibody was considered a non-binder (0)) | Antibody binding to TF construct [10]: 1 (between 50% and 150%, the antibody was considered a binder (1)) | Antibody binding to TF construct [11]: 0 (less than 50%, the antibody was considered a non-binder (0)) | Antibody binding to TF construct [12]: 1 (between 50% and 150%, the antibody was considered a binder (1)) | Antibody binding to TF construct [13]: 1 (between 50% and 150%, the antibody was considered a binder (1)) | Antibody binding to TF construct ([14]; Table 54): 0 (less than 50%, the antibody was considered a non-binder (0)) | Antibody binding to TF construct [14]: 0 (less than 50%, the antibody was considered a non-binder (0)) | Epitope Bin ([15]; assignment based on unbound chimeric constructs): 1 | Constructs not bound by antibody ([15]; chimeric human-rat TF constructs of Table 53): rTF, h1-107_r, h1-77_r, h39-77_r, h78-107_r, h78-107_r.v2, h94-107_r | Antibody binding to TF construct ([15]; construct h1-38_r (14)): 1 (between 50% and 150%, the antibody was considered a binder (1)) | Antibody binding to TF construct ([15]; construct h1-77_r (25)): 0 (less than 50%, the antibody was considered a non-binder (0)) | Antibody binding to TF construct ([15]; construct h1-107_r (52)): 0 (less than 50%, the antibody was considered a non-binder (0)) | Antibody binding to TF construct ([15]; construct h78-93_r (18)): 1 (between 50% and 150%, the antibody was considered a binder (1)) | Antibody binding to TF construct ([15]; construct h78-107_r.v2 (27)): 0 (less than 50%, the antibody was considered a non-binder (0)) | Antibody binding to TF construct ([16]; construct h146-151_r (1), human segment replaced by rat segment): 1 (between 50% and 150%, the antibody was considered a binder (1)) | Antibody binding to TF construct ([16]; construct hTF_K149N): 1 (between 50% and 150%, the antibody was considered a binder (1)) | Antibody binding to TF construct [17]: 1 (between 50% and 150%, the antibody was considered a binder (1))
